# The DeepSol protein solubility set
# Test: soluble on expression in E. coli; label from the status in PepcDB or PDB records
row,Sequence,soluble on expression in E. coli
1,MGSDKIHHHHHHMFNSEIKEKYLDTLSEGMVMQMRPIFAKAEITETLYNKDIYDFTSMQILELIRSFDQTTIGSVRRTLALLSLYIDWAISYKLSKGLTNLARTISEEELYECLGDKKLYITYSELEEMENQLVNYQSKAVLRLLFEEVSGLAHSELLSLTKKQVEDAMLNGNVLTLYDSKHGERKLKVSSECLVIALNAAQETKYKLKNGKAKGQTKEVFLVENDYVVKTKRTSNKGDGQASKFVITNLITDISEFFKINFLTPNTIVRSGHLYRAYQLYKEKGVIDNSVRYQIIDDFNLRVKSKYRAVYSMQDYINEEEVNKYYAEELGLKETTI,not soluble
2,MSLSKYAVSYVYKTFADIGSYAWAKKQIEVLASKGVINGTSDTTFTPQADITRADFMILLVKALGLTAEVTSNFDDVSEKDYYYEYVGIAKELGITTGVGNNKFNPKAKITRQDMMVLTTNALRIAGKISSTGTRADVERFSDKDQIASYAVEGVATLVKEGIVVGSGDIINPRGNASRAELAAIIYKIYYKEGHHHHHH,soluble
3,MTLKNNILPLLMLSCCFVLAACSSSNSASASASNKNKNMEPNKGRYSLKNDKMPLNPPNVDHVPNATPKYEPYSRRGNKPYTVYGESYTVLNSGEGFSETGRASWYGEKFHGYETSNGEPYDMYGMSGAHKTLPLPSYARVTNLDNNKQVIIRINDRGPFHSERILDLSYAAAYKLGMLGTGTARIKLDVIYIGSKAATQSAIASVHSSGNHYIQLVASKDKQRLHKMAKDLEKKYQVKTRVQPANNMFRLQLGPIGQAELADRLLIKVKQDGYPAGYIVSEK,not soluble
4,MSLKKTQQKEIENVTNITGVRQIELWRRDDLQHPRLDEVAEEVPVALVYNGISHVVMMASPKDLEYFALGFSLSEGIIESPRDIFGMDVVPSCNGLEVQIELSSRRFMGLKERRRALAGRTGCGVCGVEQLNDIGKPVQPLPFTQTFDLNKLDDALRHLNDFQPVGQLTGCTHAAAWMLPSGELVGGHEDVGRHVALDKLLGRRSQEGESWQQGAVLVSSRASYEMVQKSAMCGVEILFAVSAATTLAVEVAERCNLTLVGFCKPGRATVYTHPQRLSNEGHHHHHH,soluble
5,MSLKPINVVIIENENISRVGAAAILSETGKIQVCGLAKTGKEGIETVDQQKPDIVVINIDLPDINGTDVISLIKCKHTSIKIVVMTANSSRDTINAAISNGADCYYCKNNAREEVGERFIEAVMAAYNNESWIDPTINRILIDNLRSNDTADRDSLDLLSDFSNKEITVLKLAAGGMKNNEIANVMYVSEGTVRSYLHNSFIKLGVKDRLNAIREAIRLGILSFADEGHHHHHH,soluble
6,MESGFTACISIITGVKSIYRWKNNIEENQEIMCFFKTAEDTSSHSLYRGVITSS,not soluble
7,MFEWIKTFIAVYETKNFSTAAKQLYISQPTVSLQIKKLEQHFSIKLFYRNGKQSVIPTKEADFLYPKMLSIIESLTTSFAQAAEKENFKEDCIIASSNTVAIYLLPDIMESLVTAFPLINFSIQLMNSNEVVDMVQNNHAHIGLIEKPIETKNLHKEIVYEDQLVLAGDAASKFWLLREKNSGLRFFNELYLNEHSINLPIIELNNNEVLLQLLKNNIGQSIVSRLSISDEIPWQPIDQSFASRKIFIVQTDHHANTSFSEVYNRIVEKIRERQT,not soluble
8,MQQVPDKIYVSRSRLKSNRRRLINETDVERLFSRNGFQIIHPQELTIKEQINLFRHAQVIAGPLGSAMYNCVFQTKPTKKLLLTYEKFIKMSDLLINTSTNGLLYYFAGTEHKQNKSPSNTEWSINLNQLEHHHHHH,not soluble
9,MAKVLVLGGGIGGTEAAIALRKEGFEVSLVSDKPYLYIYPISIWIPTGEAKFEDVIIPLDKFARRWGVNLIIDRVEKIDAQNKKVHLKSGKVLEDFDYLVVALGQTKRKEKGLENTLSICGSPEEALKIRDRLVELIAKGEGKIAFGFGGNPKDKTAVRGRPVFEVLFNVDYHLSRLGIRDRFELTFFAPMPKPGERLGEKALKMLDQMFQKYGIKKITGKKIKEFKENGVLFEDDTFLESDLIIYTPAGWGNPVFADSGFPLNEAGFIKIEETCQVVGYEWAYAIGDSAAIEGPPWTAKQGHLAEVMGHITAHNIAVKEGKKSGELKSYKEHINILCLMDMGWRGGGFAYRSDKRAMLIPIPVLGHIMKKAWGVYYKLYKLGKIPKII,not soluble
10,MPGFAIGQTAYVVKTDSYRLLWDCITYLDETTIAKIKELGGLDAIALSHPHYYSTQVEWAETFDVPIYIHEDDKEWVMRPSSRIIYWSGESLQLADGITIHRLGGHFSGGSVLHWEEGNDGKGILLTGDIIQVVADERWVSFMYSYPNLIPLPARKVEEMVNRVKPLQFNRLYNAFHRVVKLEHHHHHH,soluble
11,MQFTLEHAQDVLSGMPDPTFILSEDGIYIDVFGGTDKKAYHDGSNLIGKTLHSVLEKEQADWFIEQINRSLNQDSIVTIEYKMCADSIQGIDANSGPKGDLYYEGKICPLTINYQGRRVVLILTRNISNRHRVETLLRHQSQI,not soluble
12,MSSNPLRFFVLTIFPHIISCYSEYGIVKQAIKKGKVEVYPIDLREFAPKGQVDDVPYGGLPGMVLKPEPIYEAYDYVVENYGKPFVLITEPWGEKLNQKLVNELSKKERIMIICGRYEGVDERVKKIVDMEISLGDFILSGGEIVALAVIDAVSRVLPGVLSEPQSIQEDSFQNRWLGYPVYTRPREYRGMKVPEELLSGHHKLIELWKLWHRIENTVKKRPDLIPKDLTELEKDILNSILSGKSFKEWLKEHKHLLLEHHHHHH,not soluble
13,MSLRIPTKPSPVFDAATDPAGSGKDLGNLPDWDLSDLYAAPDAPEVTRDLDRLKTLCADFAERYEGKLADLDAQGMLTCVTAHEEIDRIAGRLMSYAGLRYYQVTTDGERAQFLQNCQEKLTDYTTPLVFFSLEINRIPDDKLDALFEANADLARYKPIFDRLRAMRPYQLSDELEKFLHDQSAVGSAAWNKLFDETMARLTFSPEGEDEDLSLEATLNLLSEQKRSRREAGARELARVFGENLPLFARVHNTLAKEKEIEDRWRKMPSAQTARHLSNHVEPEVVEALRNAVVDAYPKLSHRYYALKAKWLGLETMEVWDRNAPLPMEEERVIDWPKAREMVLSAYAGFDPEMAAIAEPFFDRGWIDAGVKPGKAPGAFAHPTVTDAHPYVLLNYLGKPRDVMTLAHELGHGVHQVLAAGQGELLADTPLTLAETASVFGEMLTFRKLLAEAPDAAQKKVLLAGKVEDMINTVVRQIAFYDFECKLHEARRTRGELTTSQINELWMSVQGESLGPAFTFMDGYETFWSYIPHFVHSPFYVYAYAFGDGLVNALYAVYEEGDPDFQKKYFEMLKAGGSKHHSELLKPFGLDASDPKFWDKGLSMISGFIDELEAMEDEGHHHHHH,soluble
14,MGSDKIHHHHHHMRDLLSKKSHRQLELLELLFEHKRWFHRSELAELLNCTERAVKDDLSHVKSAFPDLIFHSSTNGIRIINTDDSDIEMVYHHFFKHSTHFSILEFIFFNEGCQAESICKEFYISSSSLYRIISQINKVIKRQFQFEVSLTPVQIIGNERDIRYFFAQYFSEKYYFLEWPFENFSSEPLSQLLELVYKETSFPMNLSTHRMLKLLLVTNLYRIKFGHFMEVDKDSFNDQSLDFLMQAEGIEGVAQSFESEYNISLDEEVVCQLFVSYFQKMFFIDESLFMKCVKKDSYVEKSYHLLSDFIDQISVKYQIEMENKDNLIWHLHNTAHLYRQELFTEFILFDQKGNTIRNFQNIFPKFVSDIKKELSHYLETLEVCSSSMMVNHLSYTFITHTKHLVINLLQNQPKLKVLVMSNFDQYHAKFVAETLSYYCSNNFELEVWTELELSKESLEDSPYDIIISNFIIPPIENKRLIYSNNINTVSLIYLLNAMMFIRLDE,not soluble
15,MSTPTVITLNDGREIQATDKPSYDEDSGFYEFEQLDGKRTRLNKDQIRTVKELLEHHHHHH,not soluble
16,MGDTKVETISRLAQWRIENFGPCSFKKSDPFKVGIWNWHLSIERNRYLSVRLFPELSRVSKEQPPVAKFVLRVSNVGPNRRFYISPVYEKLLRTTDDCVWHVDSSFHGRFTIDVEFLDLKICPVNGGEASPVWPTDATMQSISTQTTLKCLSRMLEESILTDVIIHTADGTLSAHKAILSASSTVFKSMFHHDLMEKESSTIHIDDMSRESCMALLSYLYGNITQEEFWKHRLALLGAANKYDITDLKAACEESLMEDINSSNVLERLQEAWLYQLEKLKKGCLMYLFDFGKIYDVREEISSFFRQADRELMLEMFQEVLSVWKPV,soluble
17,MGSDKIHHHHHHLSVRATISDSKSDFHKEFPYVIPAIYRKLADELLVELHLLSHQKNFKKDSIFSTGLKEVFSKFTSGYKPSEHATKLFDAICNCNGFNPTEINNSSEQLVSNAKSFTKEDLNSFLSKTNNDNKGYDYYSRINAIGIYKLVSEMPLFKEVKEEDLNKEINDISKSLGYQYSRVEKDISMYKSNIEKMKQALEIIALNLKTK,not soluble
18,MSLTDNLVRVVCVSDTHNTKPNLPDGDILIHAGDLTESGTKEELEKQIYWLDSQPHRYKIVIAGNHETFLDRNYHSHHGNERVTMDWKSLIYLENTSAILDLGAGHQLKVFGSPYTPKHGNGAFQYPRTDTTTWEEIPKDTDLLVTHGPPKAHLDLGHLGCRVLRQALWEMESRPLLHVFGHIHGGYGKEEGHHHHHH,soluble
19,SAQNVYGPGVRIGNWNEDVYLEEELMKDFLEKRDKGKLLIQRSRRLKQNLLRPMQLSVTEDGYIHYGDKVMLVNPDDPDTEADVFLRGDLSLCMTPDEIQSHLKDELEVPCGLSAVQAKTPIGRNTFIILSVHRDATGQVLRYGQDFCLGITGGFDNKMLYLSSDHRTLLKSSKRSWLQEVYLTDEVSHVNCWQAAFPDPQLRLEYEGFPVPANAKILINHCHTNRGLAAHRHLFLSTYFGKEAEVVAHTYLDSHRVEKPRNHWMLVTGNPRDASSSMLDLPKPPTEDTRAMEQAMGLDTQ,soluble
20,LREQVQDLFNKKYGEALGIKYPVQVPYKRIKSNPGSVIIEGLPPGIPFRKPCTFGSQNLERILAVADKIKFTVTRPFQGLIPKPDE,soluble
21,AGKPVLHYFNARGRMECIRWLLAAAGVEFEEKFIQSPEDLEKLKKDGNLMFDQVPMVEIDGMKLAQTRAILNYIATKYDLYGKDMKERALIDMYSEGILDLTEMIGQLVLCPPDQREAKTALAKDRTKNRYLPAFEKVLKSHGQDYLVGNRLTRVDIHLLEVLLYVEEFDASLLTPFPLLKAFKSRISSLPNVKKFLQPGSQRKPPMDAKQIQEARKAFKIQ,soluble
22,MRGSHHHHHHTDPNSPLDEENLTQENQDRGTHVDLGLASANVDFAFSLYKQLVLKAPDKNVIFSPLSISTALAFLSLGAHNTTLTEILKGLKFNLTETSEAEIHQSFQHLLRTLNQSSDELQLSMGNAMFVKEQLSLLDRFTEDAKRLYGSEAFATDFQDSAAAKKLINDYVKNGTRGKITDLIKDLDSQTMMVLVNYIFFKAKWEMPFDPQDTHQSRFYLSKKKWVMVPMMSLHHLTIPYFRDEELSCTVVELKYTGNASALFILPDQDKMEEVEAMLLPETLKRWRDSLEFREIGELYLPKFSISRDYNLNDILLQLGIEEAFTSKADLSGITGARNLAVSQVVHKAVLDVFEEGTEASGTTAVKITLLSALVETRTITRFNRPFLMIIVPTDTQNIFFMSKVTNPKQA,soluble
23,MGSDKIHHHHHHMSKIKRGVSLYSFQEELFLGRMNVEDCVSFAASIGATGIEILPEQNMPTFPNLSDAQVEEWKAMVARHGCHFTAYDMFLDTKLRKDRLMSDDEQVESIVRDLRLCNRLGIRNMRVLVFVRPDILGRCVPYAEELDVHMGVEVHAPWHLEHAWILRTIEEADRLGTKHLGILPDMGIFMKHYPPAFRARFERQGARPEVTQFIVDQHEAKIMAEYTIYEVAVKMGGNKAEVAMAETLRHAPYANPKRIADYAPYFHHIQAKFYEMDEDCTDPSIAYDEVIDALVGCGWEGTLSSEYEGNRWIQDVHEVDSREQVRRQHVMFERLIVQSEARHAGKEAALCSTST,not soluble
24,GHMGEEQYNRYQQYGAEECVLQMGGVLCPRPGCGAGLLPEPDQRKVTCEGGNGLGCGFAFCRECKEAYHEGECSAVFEAS,soluble
